Assay results reported in patent US20040071656A1, “Modulation of heat-shock-protein-based immunotherapies” (priority 2001, published 2004).

Target: T1, human CD40 (Homo sapiens, UniProt P25942)
T1 construct: CD40 full-length cDNA was cloned by PCR; expressed in transfected cells
Experiment: Binding to Cos-7 cells transiently transfected with human CD40 cDNA, fluorescence microscopy
Assay type: cell-based
Details: 250 nM biotinylated protein, 30 min at 0° C.
Method: Cell culture and fluorescence microscopy. The murine macrophage cell line ANA1 was kindly provided by H. Wagner (Munich, Germany). ANA-1 cells were cultured in VLE-RPMI 1640 (Biochrom), supplemented with 10% FCS, 2 mM L-glutamine and antibiotics. For fluorescence microscopy, ANA1 cells were either stimulated with LPS (20 μg/ml, Sigma, Germany), or kept in an LPS-free medium (mock treatment) for 7 h. After stimulation, cells were harvested and incubated with 100 nM biotinylated Hsp70, biotinylated GST, or Hsp70/peptide C-biotin complex for 30 min at 0° C. in VLE-RPMI 1640. After incubation cells were processed for staining with streptavidin-TRITC (Sigma, Germany), fixed with paraformaldehyde and analyzed by fluorescence microscopy (Axiovert 35, Zeiss) as described (Sondermann et al., 2000). […] Twenty-four h post-transfection cells were incubated with 250 nM biotinylated Hsp70, biotinylated GST or Hsp70/peptide C-biotin complex for 30 min at 0° C. in DMEM, fixed, stained with streptavidin-TRITC (Sigma, Germany), and analyzed by fluorescence microscopy as described (Sondermann et al., 2000, idem). […] Stably transfected cell lines were analyzed by immunoblotting for CD40 expression using an anti-CD40 antibody (CSA180, Stressgen). […]
Mock-treated and LPS-stimulated ANA-1 cells were analyzed for their expression of CD40. […]

T1 sequence (P25942 21-277): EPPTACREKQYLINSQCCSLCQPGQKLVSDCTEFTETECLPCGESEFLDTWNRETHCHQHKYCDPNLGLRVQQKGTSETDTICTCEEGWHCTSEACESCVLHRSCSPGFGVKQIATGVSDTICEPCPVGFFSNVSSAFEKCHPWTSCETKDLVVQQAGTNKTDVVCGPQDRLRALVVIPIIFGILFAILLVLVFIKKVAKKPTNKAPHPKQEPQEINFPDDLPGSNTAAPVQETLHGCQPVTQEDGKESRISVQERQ

## Hsp70: Recombinant human heat shock protein 70, expressed and purified as His-tagged protein
  binding to CD40-transfected Cos-7 cells: bound to the surface of transfected cells but not to untransfected cells
